Results on one molecule are retold here after PMC9021188 (Cell Discovery, 2022).

Experiment [1] addresses RaTG13 RBD protein (Bat coronavirus RaTG13, UniProt A0ABF7PLN6). Nature of the experiment: ELISA. The note with it: both partners purified. (An ELISA detects its analyte on a solid surface through an enzyme-linked reagent.)
Experiment [2] has as its target SARS-CoV RBD protein (SARS-CoV, UniProt P59594). Description: cell-based or functional assay.

B1: GW01 (antibody, V domains shown)
VH: EVQLVESGGGVVQPGGSLRLSCAASGFRFDDHAMHWVRQAPGKGLEWVSVISGDGGSTYYADSVKGRFSISRDDSKNSLYLQMNSLRTEDTALYYCAKDRSYGPPDVFNYEYGMDVWGQGTTVTVSS
VL: not shown
notes: also called mAb GW01; antibody GW01
In the case of B1, the binding result in experiment [1] is “binds”. The “IC50 of neutralisation of pseudotyped SARS-CoV on Huh-7 cells” value in experiment [2] turned out to be 0.0193 µg/mL.
